Data reported in the DeepSol protein solubility set.

Assay: soluble on expression in E. coli; label from the status in PepcDB or PDB records

Sequence	soluble on expression in E. coli
MGSDKIHHHHHHAAIPDTGNWISHHLLTSDGLTVLAAGPAFAPLKWNIGQNNMGGYKGRLLFIPYDAPSTVPMIPVKPTTNEDLITASGSFTFPSGGTYTQPIYLYSTKGKVGYKAEIQGETDGKSFKQTLEFFFPGNTPGMHAFSTLVKNTPGYFVFEDSDGQQFLMGKPGMYADVSPSFDGGKLAADQRGTAYTATCDANESAVVLGTPIDMEVIAGLKPAPSPGG	not soluble
SEQDKWKTSAQLWQNLDEETIRALWNVQGQLNKLEEERDKAIEEIERQFLESSRPLYEERQRICSLVDRFWFHVLCSHPYTGTKMTNKDRTVLQHLEDVFFTEIENCMQGYQINLKFSPNDYIEDEIIWKQVKYVDDLQGWKGAASGIRWKRQDSIIDPDNEFFSDGEEVLQLTEKGNTVAKLQRKARSLLSWFETEDVTDNLKDVFYEDIWQHCIDWFFARDNASIEEFPVTMEGEQEDIVMID	soluble
MGSDKIHHHHHHMEKLKLMTIVGTRPEIIRLSSTIKACDQYFNQILVHTGQNYDYTLNQIFFDDLELRQPDHYLEAVGSNLGETMGNIIAKTYDVLLREQPDALLILGDTNSCLAAVSAKRLKIPVFHMEAGNRCFDQNVPEEINRKIVDHVSDVNLPYTEHSRRYLLDEGFNKANIFVTGSPMTEVIEAHRDKINHSDVLNKLGLAPAAYILVSAHREENIDNEKNFKSLMNAINDIAKKYKMPVIYSTHPRSWKKIEESKFEFDPLVKQLKPFGFFDYNALQKDAFVVLSDSGTLSEESSILKFPGVLIRTSTERPEVLDKGTVIVGGITYNNLIQSVELAREMQNNNEPMIDAIDYKDTNVSTKVVKIIQSYKDIINRNTWRK	not soluble
MSIERSSPIPLYFQLAGELRAAIESGAYPPGSKLPTEGELCQQYDVSRSVVRQALQSLAHDNLIETERGRGAFVLERKVPIALVQQLDPLLESMAKAGFKLTTRVLKQERIKPPAHVAEQIGENDAVFLERLRYADGVVFLVVRNFLPYSRFPDLLQSKELEDVSLYQYLAKRYNAVATTGKRQVELARINEEAIAAQLHVEMNSYVLFNREVTYDQNKQVLEYYESWHHPDRTRLTIDLHRTY	not soluble
MTKDRQIKKTKTAIYSAFIALLQKKEYSKITVRDMITLANVGRSTFYAHYESKEMLLKELCEELFHHLFRQKRNVTFEDYLVHILKHFEQNKDSIATLLLSNDPYFLLRFKNELEHDVYPNLRCKYIDKTTIPEVFLKQFVLSSFIETLKWWLHQRQRMSANELLKYYLELIK	soluble
MAEVTILGLGNLLWADEGFGVRAAEKLFEQYADNEKVDVVDGGTQGLALLPWLQQTEKLLIMDAIDFGMAPGSLAMFRDEQVPAYLTAKKLSLHQTSFSEVLALLQLTGGQLSEIVLIGVQPECLDDYGGSLTPQVKAQLMPAVYLAQEVLAQWGITASSAALPTERLNHYSLCMERYEDERPDAQSACRVGDIRVLQREKS	not soluble
MKYILFATAGHVDHGKTTLIKTLTGIDTDRLPEEKKRGLSIDIGFAYIDFPDINTRLEIIDVPGHERFIKNAIAGICSASGLILVVDPNEGIMPQTIEHLRVAKSFGIKHGIAVLTKMDKVDEELAHIAEEELIAFLEKEEMNMEIVKVSAVTGQGIEDLKNSIKKLLESINNLNKHKPLRIFVDSAFVVKGYGTVLRGSCFEGEVKEGDKVVVEPIGVISRVRKMQNHGVFVKKAVAGERIALNLPEVDAKKVKRGFLILKPESYEKSNVLIVKTEIDLKPGKIYQVFFGMRETVGKISVIDKGIYLVRLKENAIVRRGDKLVVLDSSGNFLGGAEVLHPKVRVTKKAFIKKNIKDLLENFECYLLKERGPIGLKLEFFKRITGVSPKVANLKPESIEIRGVYYLKGFIENLKLKIKKFLDTELQNAFGVDKEKVKSMFSLNEELLKYILDELKTYKIVNELIIDERKSDLEKNEDFQKLMSILKGGIKEEREIILEGIPKEILTLSIKRKYAHRIGEYLIISDELLKKYINELKELGKTFNVQQAKNKLGLTRKYLIPLLEYLDYLGLTVREGNERRWKR	soluble
MKAPLVSIIIPVWNLWELTCACLDSIRAHTPGNAVEVIVVDNGSDDTTATALAPTGEGLFGARFRRIRLETNRGFAVACNLGAAKAQGTYLLLLNNDTVLSPGWLPPLLREFDDEPRTGAAGPLLVYPDSGRVQHCGIAFAPTLQTEHLYANFPATHPAVRARRTLQAITGAAMLLPTALFRQCGGFHEGYKNGCEDLELCCRIREQGLRLAVVPESLVAHHESRTPGRKEHDAANATLLNRRCSGCFGPDLHRHALRDGFAIALTPWLDTYLTLPPGREAALTREHITDFDPGRCWETLQGEPLWHGGYEMLCSILDEAGRHAESAGVRLLQAGFFPTLPGFRQLARSAALSGNDELARQAAEKMQHIGGILEDPEPLVTRARGLVRWARRAGEPAVEALYTGWLTDIGLSADDLEHHHHHH	soluble
MTEKEKMLAEKWYDANFDQYLINERARAKDICFELNHTRPSATNKRKELIDQLFQTTTDNVSISIPFDTDYGWNVKLGKNVYVNTNCYFMDGGQITIGDNVFIGPNCGFYTATHPLNFHHRNEGFEKAGPIHIGSNTWFGGHVAVLPGVTIGEGSVIGAGSVVTKDIPPHSLAVGNPCKVVRKIDNDLPSETLNDETIK	soluble
MGSDKIHHHHHHLGFGAPKISNEEERLRALAEYRILGTQPEQCYDDITKIASLTCGTPISLMSLVDTDTQWFKSMCGFETKETSRDVSFCAHAIASSEPLIVEDALLDERFKSNPLVVEEPKIRLYAGFPLQTPNDQRIGTLCVIDRKPGHLSDHQHQIMEALSRQVVTLLELRKRSIRLLDALTHMHNTEGILTTCSYCKEVRDSDGEWQHLEKYLSKIADIRFSHGICDLCMEKHFPDVLEVWSDDKLDLNSKKNKPECKKSN	not soluble
SNAMSVQTIERLQDYLLPEWVSIFDIADFSGRMLRIRGDIRPALLRLASRLAELLNESPGPRPWYPHVASHMRRRVNPPPETWLALGPEKRGYKSYAHSGVFIGGRGLSVRFILKDEAIEERKNLGRWMSRSGPAFEQWKKKVGDLRDFGPVHDDPMADPPKVEWDPRVFGERLGSLKSASLDIGFRVTFDTSLAGIVKTIRTFDLLYAEAEKGS	soluble
MGSDKIHHHHHHMLPLSAEEFARLVPILRQAGLSHVTHIHELAGGLSNHNYHIQTPTTQYALRLNAEAADRFCSREQELFYWRNLAKAKLAPELIWTSCDHRYYLSAFIESQDIASLLNASQIPDMLGDWADVRGALNWKNLAYQCSAAEFTLGEQRLQTWLQAHAENFECALHQACMPQSFAAQLTPLALLESQCPNRVHSLLLQLLQRLRLQSAGPYHISVTEQWQQYHQQLLAFAATDKGSAWQTRLDLLLGLQPQIHRWTTVLADCLVAAQFCHRDLNPHNLLLKDNQLYCIDFEYATASHPLCELAVVLATHRLTPVQRHILVRQYLADHPGVTSTAITAVPAAIDMYWVFALYWALLIAAQTDAERQQEYLAWFDSFWSLVSQDA	not soluble
MSLDQPLTFYGLKSMSGAFASYGKYADMGSRLAIAEHPQLLGHPLKYKVIDTEGNAGKAVRKVQEAIGQDGARFFQGCTLSSSALAVSKEIHKAGGVFMTPVGADEITGKDCNASTFRWSVPTYGAIRETLVPMSRQLPQAKRWYTITPQYVFGDALLDNARKVFAELGVEHIGNSYHSLQEQEFSGYLTNAIAAKPDVLVLLNFGSQASNALRQAVNFGIKDRMKVLMVWSAGLDQFQELGSDVLEGVYLGAQYWHQVDTPLNKLLVAATRKAYGINPNYPLAADYIGTKVMLEAIVKAGSLDGAAVSAALQGMRFQGPTGEELIRPGDHQVLKDYYLLRGKPQGQMRDEDDLAEVISSGRSFVEVDHTGCALAEGHHHHHH	soluble
MPSMLERISKNLVKEIGSKDLTPVKYLLSATKLRQFVILRKKKDSRSSFWEQSDYVPVEFSLNDILEPSSSVLETVVTGPFHFSDIMIQKHKADMGVNVGIEVSVSGEASVDHGCSLEFQIVTIPSPNLEDFQKRKLLDPEPSFLKECRRRGDNLYVVTEAVELINNTVLYDSSSVNILGKIALWITYGKGQGQGESLRVKKKALTLQKGMVMAYKRKQLVIKEKAILISDDDEQRTFQDEYEISEMVGYCAARSEGLLPSFHTISPTLFNASSNDMKLKPELFLTQQFLSGHLPKYEQVHILPVGRIEEPFWQNFKHLQEEVFQKIKTLAQLSKDVQDVMFYSILAMLRDRGALQDLMNMLELDSSGHLDGPGGAILKKLQQDSNHAWFNPKDPILYLLEAIMVLSDFQHDLLACSMEKRILLQQQELVRSILEPNFRYPWSIPFTLKPELLAPLQSEGLAITYGLLEECGLRTELDNPRSTWDVEAKMPLSALYGTLSLLQQLAEA	soluble
QDIAADIAPERVSNDPLVNLGEAVVEEEEKVGALEDLFMETKQDGVNTDDPIAHLKFSMQREDDYLIRDVEKPEPAPAKTIENTRQVVDDSFSIHSEFDIPNLIPEDWLGGVATSKESVEPAAEQAKQAAFIPEDFAHTKPVSPQASVVQPDVNQPQQPQYEAPLSHATSNVTQRAEPVSQKWEEVTQAFVPSAQPTQPETKAKEAQQGFVSNESLAIESVAHSSDIGKAFYEGLGISNPDLISNEALLFKQMGACLRLCIDNLQKDLHEVESLKGEQGLSEADSNLAELMLTLNSQNLLSPNELVEQMLDELNDHQIIFNKALNELLIEQSETNDPVMFANDVASKSMFTTKSKLWGEYLEFYANNRRQMNETSLKGLIKKNYTKAIKGSHA	not soluble
GAMEKFKTLLYDIPIECMEVSEEIISYAKLQLGKKLNDSIYVSLTDHINFAIQRNQKGLDIKNALLWETKRLYKDEFAIGKEALVMVKNKTGVSLPEDEAGFIALHIVNAELNEEMPNIINITKVMEEILSIVKYHFKIEFNEESLHYYRFVTDLKFFAQRLFNGTHMESEDDFLLDTVKEKYHRAYECTKKIQTYIEREYEHKLTSDELLYLTIDIERVVKQA	soluble
MTPGVDGVNKTMLQARLAVELQILRDELLSGHYQPLPARRVYIPKSNGKLRPLGIPALRDRIVQRAMLMAMEPIWESDFHTLSYGFRPERSVHHAIRTVKLQLTDCGETRGRWVIEGDLSSYFDTVHHRLLMKAVRRRISDARFMTLLWKTIKAGHIDVGLFRAASEGVPQGGVISPLLSNIMLNEFDQYLHERYLSGKARKDRWYWNNSIQRGRSTAVRENWQWKPAVAYCRYADDFVLIVKGTKAQVEAIREECRGVLEGSLKLRLNMDKTKIPHVNDGFIFLGHRLIRKRSRYGEMRVVSTIPQEKARNFAASLTALLWKVRISGEILLGLEHHHHHH	soluble
MGSDKIHHHHHHMTTKPERVVLIGVAGDSGCGKSTFLRRLIDLFGEEFMTVICLDDYHSLDRKQRKETGITALDPRANNFDLMYEQIKALKEGQTINKPIYNHETGLIDPPEIVKPNHIVVVEGLHPLYDERVRSLLDFSVYFDISDEVKIAWKIQRDMAERGHRYEDVLAAINSRKPDFQKYIEPQREFADVVLQVLPTNLIKDDTDRKVLRVRMLQREGKEGFEPAYLFDEGSTINWTPCGRKLTCSYPGMQLYYGSDVYYGRYVSVLEVDGQFDNLEEVIYIETHLSNTSTKYQGELTQLLLQHREYPGSNNGTGFFQVLTGLKMRAAYERLTAKEAKLAVQV	not soluble
MGSDKIHHHHHHMTTGKKVARRKLSLLELASELDNVSKACRIMGYSRQQFYEIRRNYQTFGAEGLVDRLPGPREPHPNRVDEATEDRILAYSLEFPTHGPVRVAQQLVLQGVQVSSGGVRGVWSRNGMLTRHERLLRLERHVRDTGIALNDDQVRTLERFSPEFRERHIETRCSGDLVAVDTFFVGTLKGVGKIYLQSAIDCHSRYAFGRLYTSKLPVTAVHMLNESVLPFFEEHDTPVVTVLSDNGREFCGRPDRHPYELFLQLENIEHRTTRVRRPQSNGFVERLHRTLLDEHFRIQGRKNWYESLDEMQADLDAYLRHYNHERAHQGRNMSGRTPYQAFLDSRPEGQPKEDNEGHYAA	not soluble
